{
  "source": "patent US20030203372A1",
  "about": "“Analysis method” (priority 2000, published 2003)",
  "key": {"[1]": {"tested_on": "primary human cell cultures (11 cell types)", "assay": "Custom gene array, 11 human cell types in normoxia or hypoxia for 6 hr and 18 hr;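 as to mRNA expression level, #1 HY 18 hr: cell type #1 is adipocyte from subcutaneous adult adipose tissue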;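 as to mRNA expression level, #1 HY 6 hr: cell type #1 is adipocyte from subcutaneous adult adipose tissue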;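 as to mRNA expression level, #1 NO: cell type #1 is adipocyte from subcutaneous adult adipose tissue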;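 as to mRNA expression level, #2 HY 18 hr: cell type #2 is fetal cardiomyocyte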;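 as to mRNA expression level, #2 HY 6 hr: cell type #2 is fetal cardiomyocyte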;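 as to mRNA expression level, #2 NO: cell type #2 is fetal cardiomyocyte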;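 as to mRNA expression level, #3 HY 6 hr: cell type #3 is human umbilical vein endothelial cells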;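 as to mRNA expression level, #3 NO: cell type #3 is human umbilical vein endothelial cells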;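 as to mRNA expression level, #4 HY 18 hr: cell type #4 is adult dermal fibroblast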;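 as to mRNA expression level, #4 HY 6 hr: cell type #4 is adult dermal fibroblast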;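 as to mRNA expression level, #4 NO: cell type #4 is adult dermal fibroblast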;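 as to mRNA expression level, #5 HY 6 hr: cell type #5 is adult hepatocyte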;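 as to mRNA expression level, #5 NO: cell type #5 is adult hepatocyte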", "assay_type": "cell-based", "details": "for HIGHEST FOLD CHANGE IN HYPOXIA (hr hypoxia + cell type): hypoxia/normoxia induction ratio", "outline": "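Values are each gene's expression relative to its median over all cell types and conditions, after per-array normalisation to control genes and merging of replicate arrays. Cells were 11 human types, mostly unmodified primary cultures, kept in normoxia or exposed to hypoxia for 6 hr or 18 hr.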"}, "human macrophages": {"tested_on": "human macrophages", "assay": "Custom gene array, macrophages with no cytokines, IL-10 or LPS + IFN, in normoxia and hypoxia", "assay_type": "cell-based", "details": "for mRNA EXPRESSION (experimental condition) #1: #1 no cytokines/normoxia; for mRNA EXPRESSION (experimental condition) #2: #2 no cytokines/hypoxia; for mRNA EXPRESSION (experimental condition) #3: #3 IL-10/normoxia; for mRNA EXPRESSION (experimental condition) #4: #4 IL-10/hypoxia; for mRNA EXPRESSION (experimental condition) #5: #5 LPS/IFN/normoxia; for mRNA EXPRESSION (experimental condition) #6: #6 LPS/IFN/hypoxia", "protocol": "Macrophages were derived and cultured as described elsewhere in the specification. A total of 6 experimental conditions were analysed, as shown below. Where cells were treated with cytokines or hypoxia (0.1% oxygen), this was for 6 hr. Lipopolysaccharide (LPS) (from E.coli 026:B6; Sigma), gamma Interferon (IFN) and Interleukin-10 (IL-10) were all used at a final concentration of 100 ng/ml. The effect of gamma Interferon and Lipopolysaccharide is to activate macrophages, with a Th1 biased phenotype, as found in many inflammatory conditions. Interleukin-10 is a Th2 cytokine and de-activates macrophages, and suppresses their effector functions."}, "[2]": {"details": "Table 16, referenced to median of the gene over 6 conditions"}, "[3]": {"details": "Table 15, referenced to the median value of that gene throughout all 6 conditions"}},
  "data": [
    {"molecule": "p1E1 (nucleic acid, listed as Homo Sapiens, EST array clone) DNA: TTTTGGTCTGAGAATGATGGACATTTAGACACTGGCGCCAGGTTTGCGCTGGACCGGCGCACGCAGGGGTTGGGCGGACGAAAGACACACAGGTGGGCTACAGGTGTCACACGGCACCAGCCAGGGCCCGGGGTGGCTGGGGTGAGGATGGGTGTTTGGCCAGTGACCAGGAGTCAGGTCAAGTCCAGGTGGTCAGTGCCAGGGGTCCCAGGAGGGGAGGGCAGTGCATTAACCCTCCTGGTGTCCAGCGTCACCAGGCGGTCGTCACAGAAAGCAACCTCGGCCCGGGGCCG", "values": [
      {"measurement": "mRNA expression level, #1 HY 6 hr", "setting": "[1]; cell type #1, hypoxia 6 hr", "value": 1.31},
      {"measurement": "mRNA expression level, #1 HY 18 hr", "setting": "[1]; cell type #1, hypoxia 18 hr", "value": 2.14},
      {"measurement": "mRNA expression level, #1 NO", "setting": "[1]; cell type #1, normoxia", "value": 2.91},
      {"measurement": "mRNA expression level, #2 HY 6 hr", "setting": "[1]; cell type #2, hypoxia 6 hr", "value": 6.21},
      {"measurement": "mRNA expression level, #2 HY 18 hr", "setting": "[1]; cell type #2, hypoxia 18 hr", "value": 2.25},
      {"measurement": "mRNA expression level, #2 NO", "setting": "[1]; cell type #2, normoxia", "value": 3.07},
      {"measurement": "mRNA expression level, #3 HY 6 hr", "setting": "[1]; cell type #3, hypoxia 6 hr", "value": 2.11},
      {"measurement": "mRNA expression level, #3 HY 18 hr", "setting": "[1]; cell type #3, hypoxia 18 hr", "value": 1.28},
      {"measurement": "mRNA expression level, #3 NO", "setting": "[1]; cell type #3, normoxia", "value": 1.08},
      {"measurement": "mRNA expression level, #4 HY 6 hr", "setting": "[1]; cell type #4, hypoxia 6 hr", "value": 1.01},
      {"measurement": "mRNA expression level, #4 HY 18 hr", "setting": "[1]; cell type #4, hypoxia 18 hr", "value": 1.21},
      {"measurement": "mRNA expression level, #4 NO", "setting": "[1]; cell type #4, normoxia", "value": 1.02},
      {"measurement": "mRNA expression level, #5 HY 6 hr", "setting": "[1]; cell type #5, hypoxia 6 hr", "value": 0.80},
      {"measurement": "mRNA expression level, #5 NO", "setting": "[1]; cell type #5, normoxia", "value": 0.56},
      {"measurement": "mRNA expression level, #6 HY 6 hr", "setting": "[1]; cell type #6, hypoxia 6 hr", "value": 1.16},
      {"measurement": "#6 HY 18 hr (mRNA expression level)", "setting": "[1]; cell type #6, hypoxia 18 hr", "value": 1.25},
      {"measurement": "mRNA expression level, #6 NO", "setting": "[1]; cell type #6, normoxia", "value": 0.64},
      {"measurement": "#7 HY 6 hr (mRNA expression level)", "setting": "[1]; cell type #7, hypoxia 6 hr", "value": 0.42},
      {"measurement": "#7 HY 18 hr (mRNA expression level)", "setting": "[1]; cell type #7, hypoxia 18 hr", "value": 0.29},
      {"measurement": "#7 NO (mRNA expression level)", "setting": "[1]; cell type #7, normoxia", "value": 0.29},
      {"measurement": "#8 HY 6 hr (mRNA expression level)", "setting": "[1]; cell type #8, hypoxia 6 hr", "value": 0.47},
      {"measurement": "#8 HY 18 hr (mRNA expression level)", "setting": "[1]; cell type #8, hypoxia 18 hr", "value": 0.91},
      {"measurement": "#8 NO (mRNA expression level)", "setting": "[1]; cell type #8, normoxia", "value": 0.28},
      {"measurement": "#9 HY 6 hr (mRNA expression level)", "setting": "[1]; cell type #9, hypoxia 6 hr", "value": 1.24},
      {"measurement": "#9 HY 18 hr (mRNA expression level)", "setting": "[1]; cell type #9, hypoxia 18 hr", "value": 0.88},
      {"measurement": "#9 NO (mRNA expression level)", "setting": "[1]; cell type #9, normoxia", "value": 1.03},
      {"measurement": "#10 HY 6 hr (mRNA expression level)", "setting": "[1]; cell type #10, hypoxia 6 hr", "value": 0.61},
      {"measurement": "#10 HY 18 hr (mRNA expression level)", "setting": "[1]; cell type #10, hypoxia 18 hr", "value": 0.60},
      {"measurement": "#10 NO (mRNA expression level)", "setting": "[1]; cell type #10, normoxia", "value": 0.32},
      {"measurement": "#11 HY 6 hr (mRNA expression level)", "setting": "[1]; cell type #11, hypoxia 6 hr", "value": 4.39},
      {"measurement": "#11 HY 18 hr (mRNA expression level)", "setting": "[1]; cell type #11, hypoxia 18 hr", "value": 2.33},
      {"measurement": "#11 NO (mRNA expression level)", "setting": "[1]; cell type #11, normoxia", "value": 3.03},
      {"measurement": "HIGHEST FOLD CHANGE IN HYPOXIA (hr hypoxia + cell type)", "setting": "[1]; 6 hr cardiomyocyte", "value": "3.24 (6 hr cardiomyocyte) fold"},
      {"measurement": "mRNA EXPRESSION (experimental condition) #1", "setting": "human macrophages; [2]", "value": 1.21},
      {"measurement": "mRNA EXPRESSION (experimental condition) #2", "setting": "human macrophages; [2]", "value": 1.64},
      {"measurement": "mRNA EXPRESSION (experimental condition) #3", "setting": "human macrophages; [2]", "value": 0.94},
      {"measurement": "mRNA EXPRESSION (experimental condition) #4", "setting": "human macrophages; [2]", "value": 1.35},
      {"measurement": "mRNA EXPRESSION (experimental condition) #5", "setting": "human macrophages; [2]", "value": 0.51},
      {"measurement": "mRNA EXPRESSION (experimental condition) #6", "setting": "human macrophages; [2]", "value": 0.63}
    ]},
    {"molecule": "p1F6 (nucleic acid, listed as Homo Sapiens) DNA: GTCCATCTTGCTGCTGTCCACTTTGGGTTCCATCTTGGGCTCCATCTTGCTCTCACGATTAAAAGCTTCTTTCCTGCTTTCCCCATTCCGACCATCATTTGCACCCCGGTTCTCCCCATGCCGGCCTGCGCTTCCTCCATGTCTGTTCTCCCCGTGCCGATGGCCATCAGTATGACGGCTGCTGCTTTCTGGATGGCGGTATCCATCTCCATGGCGACCACCATCTCCGTGACGTGGACTATCGCTATGCCGATTGCCAGTCTCTCCGTGACTGTGACGGCTGCTGCCCCGGTTCTCAGTATATCTCTCTCTTTTCCCGTTGCTGCCCCCAGTCCCTTCTCGGCTGTTATTCCCTGAAGCTGTGTTGTTGACTCCTTGGGCTCCGGCAGACGGGTAGGTCACAGGGGCACCACTGATGTTGCCAGTATTGCCAAAGCCTGGGATGCCCTTGGCGGCACTGGTGACGGGGCTGTCAGGACTGTTATGGCCCTGTTGTGCTGAGTTAGTTGGAACAGAATTCAAGCTCCCTGCACTAGTCCACCTGCCCCACTGCTTCTTCGCTTCTCTCTTGGAAAGTCCAGTCTCTCCTCGGCTTGCAATGGACCCCAACTGCTCCTGCGCCGCTGGTGTCTCCTGCACCTGCGCTGGTTCCTGCAAGTGCAAAGAGTGCAAATGCACCTCCTGCAAGAAGAGCTGCTGCTCCTGCTGCCCCGTGGGCTGTAGCAAGTGTGCCCAGGGCTGTGTTTGCAAAGGGGCGTCAGAGAAGTGCAGCTGCTGCGACTGATGCCAGGACAACCTTTCTCCCAGATGTAAACAGAGAGACATGTACAAACCTGGATTTTTTTTTTATACCACCTTGACCCATTTGCTACATTCCTTTTCCTGTGAAATATGTGAGTGATAATTAAACACTTTAGACCTGAAAAAAAAAAAAAAAAAAAAAAAAAAAAAAAAAAAAAAAAAAAAAAAAAAAAAAAAAAAAAAAAAAAAAAAAAAAAAAAAAAAAAAAAAAAAAAAAAAAAAAAAAAAAAAAAAAAAAAAAAAAAAAAAAAAAAAAAAAAAAAAAAAAAA", "values": [
      {"measurement": "HIGHEST FOLD CHANGE IN HYPOXIA (hr hypoxia + cell type)", "setting": "[1]; 18 hr monocyte", "value": "67.4 (18 hr monocyte) fold"},
      {"measurement": "mRNA EXPRESSION (experimental condition) #1", "setting": "human macrophages; [3]", "value": 0.44},
      {"measurement": "mRNA EXPRESSION (experimental condition) #2", "setting": "human macrophages; [3]", "value": 1.08},
      {"measurement": "mRNA EXPRESSION (experimental condition) #3", "setting": "human macrophages; [3]", "value": 0.47},
      {"measurement": "mRNA EXPRESSION (experimental condition) #4", "setting": "human macrophages; [3]", "value": 1.06},
      {"measurement": "mRNA EXPRESSION (experimental condition) #5", "setting": "human macrophages; [3]", "value": 1.11},
      {"measurement": "mRNA EXPRESSION (experimental condition) #6", "setting": "human macrophages; [3]", "value": 2.47}
    ]}
  ]
}
